Series [1] deals with the molecule itself. Kind of series: SEC-MALS; Superdex 200 Increase 10/300 GL, 20 mM Tris pH 8.0, 150 mM KCl, 2 mM DTT; wild-type and FFV at >10 mg/ml and at 1 mg/ml; species stable across 1-10 mg/ml.
Series [2] deals with the molecule itself. Kind of series: SEC-SAXS; Superdex 200 Increase 10/300 GL, 20 mM Tris pH 8.0, 150 mM KCl; samples at >5 mg/ml; beamline B21, Diamond Light Source.
Series [3] deals with the molecule itself. Kind of series: crystal structure; TEX12 FFV at 43 mg/ml, sitting drops, 200 mM calcium acetate, 40% MPD, 20 °C; C222_(1), 1.45 Å, two chains per asymmetric unit.
Series [4] concerns the molecule itself. Briefly: SEC-SAXS; Superdex 200 Increase 10/300 GL, 20 mM Tris pH 8.0, 150 mM KCl; ΔCtip and LFIL analysed at ~30 mg/ml to minimise dissociation.
Series [5] concerns the molecule itself. Briefly: SEC-MALS; Superdex 200 Increase 10/300 GL, 20 mM Tris pH 8.0, 150 mM KCl, 2 mM DTT; ΔCtip and LFIL loaded at 1 mg/ml after stepwise dilution.

The results in this text go back to article PMC9452514, “Coiled-coil structure of meiosis protein TEX12 and conformational regulation by its C-terminal tip” (Communications Biology, 2022).

B1: TEX12 core (amino-acids 49–123) wild-type (domain or fragment, human, UniProt Q9BXU0 49-123, looked up)
chain: KDEALEKDLNDVSKEINLMLSTYAKLLSERAAVDASYIDEIDELFKEANAIENFLIQKREFLRQRFTVIANTLHR
notes: TEX12, human, structural core, amino-acids 49-123; expressed from pMAT11 as a TEV-cleavable His-MBP fusion; also called TEX12 wild-type; WT; source: E. coli BL21 (DE3), purified (Ni-NTA, amylose, HiTrap Q HP, TEV cleavage, SEC); not shown: His, N-terminal, cleaved; MBP, N-terminal, cleaved
As for B1, the “stoichiometry N” value in series [1] was 2.

B2: TEX12 core (amino-acids 49–123) F102A F109E V116A (FFV) (domain or fragment, human, UniProt Q9BXU0 49-123, looked up)
chain: KDEALEKDLNDVSKEINLMLSTYAKLLSERAAVDASYIDEIDELFKEANAIENALIQKREELRQRFTAIANTLHR
notes: TEX12, human, structural core, amino-acids 49-123, with mutations of solvent-exposed residues; both crystal forms (6HK9, 6R2F) show dimers; The introduction gives the FFV of the earlier work as F102A F109A V116A; also called TEX12 FFV; TEX12 (49–123) FFV; source: E. coli BL21 (DE3), purified (Ni-NTA, amylose, HiTrap Q HP, TEV cleavage, SEC); not shown: His, N-terminal, cleaved; MBP, N-terminal, …
As for B2, the “stoichiometry N” value worked out at 4 in series [2] and 2 in series [3].

B3: TEX12 core (amino-acids 49–123) L110E F114E I117E L121E (LFIL) (domain or fragment, human, UniProt Q9BXU0 49-123, looked up)
chain: KDEALEKDLNDVSKEINLMLSTYAKLLSERAAVDASYIDEIDELFKEANAIENFLIQKREFERQRETVEANTEHR
notes: TEX12, human, structural core, amino-acids 49-123, with glutamate mutations of the Ctip heptad amino-acids; In solution tetramers in concentration-dependent equilibrium with dimers; also called TEX12 LFIL; source: E. coli BL21 (DE3), purified (Ni-NTA, amylose, HiTrap Q HP, TEV cleavage, SEC); not shown: His, N-terminal, cleaved; MBP, N-terminal, cleaved
Regarding B3, the figures for the “stoichiometry N” value in series [4] and in series [5] were 4 and 2, respectively.

B4: TEX12 ΔCtip (amino-acids 49–113) (domain or fragment, human, UniProt Q9BXU0 49-113, looked up)
chain: KDEALEKDLNDVSKEINLMLSTYAKLLSERAAVDASYIDEIDELFKEANAIENFLIQKREFLRQR
notes: TEX12, human, core without the C-terminal tip (deletion of amino-acids 114-123), amino-acids 49-113; Tetramer in the crystal (6HK8); in solution tetramers in concentration-dependent equilibrium with dimers; also called TEX12 ΔCtip (49–113); source: E. coli BL21 (DE3), purified (Ni-NTA, amylose, HiTrap Q HP, TEV cleavage, SEC); not shown: His, N-terminal, cleaved; MBP, N-terminal, cleaved
In the case of B4, the “stoichiometry N” value in series [4] was 4; in series [5], 2.
